Measurements taken from publication PMC10229617 (Nature Communications, 2023).

Molecular target: the molecule itself
Assay: native MS; MS spectrum of the archaeal α/β assembly mixture (assembled without the 60 °C step), 150 mM ammonium acetate pH 7.5

B1: T. acidophilum 20S proteasome α-ring (α7), tag cleaved (natural protein, Thermoplasma acidophilum)
chain: MQQGQMAYDRAITVFSPDGRLFQVEYAREAVKKGSTALGMKFANGVLLISDKKVRSRLIEQNSIEKIQLIDDYVAAVTSGLVADARVLVDFARISAQQEKVTYGSLVNIENLVKRVADQMQQYTQYGGVRPYGVSLIFAGIDQIGPRLFDCDPAGTINEYKATAIGSGKDAVVSFLEREYKENLPEKEAVTLGIKALKSSLEEGEELKAPEIASITVGNKYRIYDQEEVKKFL
notes: proteasome subunit alpha, Thermoplasma acidophilum; source: E. coli BL21(DE3), purified (HisTrap FF, TEV cleavage), in the assembly mixture
stoichiometry N: 7
